The results in this text go back to patent US20230295335A1 (published 2023).

One assay deals with T1, FcγRIIIa-F158 (human, UniProt P08637 17-208).
T1 construct: extracellular domain; Bought His-tagged protein
Briefly: SPR (Biacore 8K); His-tagged FcγR captured on anti-His chip.

Another assay deals with T2, FcγRIIa-R131 (human, UniProt P12318 34-218, limits assumed).
T2 construct: Bought His-tagged protein; also called CD32A Protein, Human, Recombinant (167 Arg, His & AVI Tag)
T2 sequence (looked up): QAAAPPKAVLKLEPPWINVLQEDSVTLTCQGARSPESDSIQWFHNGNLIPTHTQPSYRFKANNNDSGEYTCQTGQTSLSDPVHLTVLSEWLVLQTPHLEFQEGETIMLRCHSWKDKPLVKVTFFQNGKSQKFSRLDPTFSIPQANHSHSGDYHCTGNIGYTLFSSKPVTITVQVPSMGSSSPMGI
The assay is described as above.

The next assay concerns the target T3, FcγRIIb (human, UniProt P31994 43-217, limits assumed).
T3 construct: Bought His-tagged protein; also called CD32B/Fcgr2b Protein, Human, Recombinant (His & AVI Tag)
T3 sequence (looked up): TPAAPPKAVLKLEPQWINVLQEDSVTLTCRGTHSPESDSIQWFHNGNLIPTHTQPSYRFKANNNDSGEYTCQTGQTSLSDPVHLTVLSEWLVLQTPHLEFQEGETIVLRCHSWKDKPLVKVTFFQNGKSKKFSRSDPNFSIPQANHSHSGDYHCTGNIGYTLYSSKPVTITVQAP
The description is as above.

A further assay concerns the target T4, FcγRIIIa-V158 (human, UniProt P08637 17-208).
T4 construct: Bought His-tagged protein
The assay is described as above.

In another assay the target is T5, FcγRIIa-H131 (human, UniProt P12318 34-218, limits assumed).
T5 construct: Bought His-tagged protein; also called CD32A Protein, Human, Recombinant (167 His, His Tag)
T5 sequence (looked up): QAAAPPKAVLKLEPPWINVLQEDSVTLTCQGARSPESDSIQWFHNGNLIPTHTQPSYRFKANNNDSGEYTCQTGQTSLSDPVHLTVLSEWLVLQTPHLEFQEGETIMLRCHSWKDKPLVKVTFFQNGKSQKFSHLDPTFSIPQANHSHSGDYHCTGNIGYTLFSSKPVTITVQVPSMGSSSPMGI
The assay is described as above.

The target in another assay is T6, FcγRIa (human, UniProt P12314 16-288, limits assumed, biotinylated).
T6 construct: Bought His-tagged protein captured on anti-His chip; also called CD64 Protein, Human, Recombinant (His Tag), Biotinylated
T6 sequence (P12314 16-288 limits assumed): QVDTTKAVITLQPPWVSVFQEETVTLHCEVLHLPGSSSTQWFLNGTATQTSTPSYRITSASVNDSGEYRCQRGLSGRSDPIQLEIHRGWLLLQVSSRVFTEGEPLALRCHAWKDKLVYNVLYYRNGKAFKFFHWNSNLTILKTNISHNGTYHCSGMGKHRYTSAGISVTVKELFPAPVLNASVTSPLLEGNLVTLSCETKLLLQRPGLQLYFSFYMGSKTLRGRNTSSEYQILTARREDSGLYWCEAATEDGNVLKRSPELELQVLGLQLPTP
The assay is described as above.

Assay [1] deals with T7, neonatal Fc receptor (FcRn), His-tagged (SinoBiological, cat. no. CT009-H08H-B) (UniProt P55899 24-297). Nature of the assay: SPR kinetics assay at pH 6.0; His-tagged FcRn captured on anti-His chip, antibody 0-500 nM.
T7 sequence (P55899 24-297 limits assumed, form in doubt): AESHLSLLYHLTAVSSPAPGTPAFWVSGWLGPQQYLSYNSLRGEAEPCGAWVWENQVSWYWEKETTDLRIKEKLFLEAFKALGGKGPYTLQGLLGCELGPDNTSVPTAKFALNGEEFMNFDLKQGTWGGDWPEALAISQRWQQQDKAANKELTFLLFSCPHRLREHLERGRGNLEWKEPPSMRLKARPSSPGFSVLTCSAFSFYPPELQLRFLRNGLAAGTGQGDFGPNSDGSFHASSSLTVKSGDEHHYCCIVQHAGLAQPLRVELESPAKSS
Protocol: (§1) In a separate experiment, binding to neonatal Fc receptor (FcRn) was tested by SPR, using a kinetics assay with the following changes to the methods described above. […] Experiments were performed three times at pH 6.0 (under acidic conditions, at which IgG binds to FcRn) and two times at pH 7.4 (binding to IgG is not expected at this pH).
Assay [2] deals with T7, neonatal Fc receptor (FcRn), His-tagged …. Nature of the assay: SPR kinetics assay at pH 6.0; His-tagged FcRn captured on anti-His chip, antibody 0-500 nM; mean of three experiments.
Protocol: as §1
Assay [3] has as its target T8, full length human EpCAM on cells (human, UniProt P16422 24-314).
T8 construct: the cell line is named under assay; also called EpCAM on DiFi, HPAF-II and A549 tumor cells; CHO-S cells transfected with full length human EpCAM
T8 sequence: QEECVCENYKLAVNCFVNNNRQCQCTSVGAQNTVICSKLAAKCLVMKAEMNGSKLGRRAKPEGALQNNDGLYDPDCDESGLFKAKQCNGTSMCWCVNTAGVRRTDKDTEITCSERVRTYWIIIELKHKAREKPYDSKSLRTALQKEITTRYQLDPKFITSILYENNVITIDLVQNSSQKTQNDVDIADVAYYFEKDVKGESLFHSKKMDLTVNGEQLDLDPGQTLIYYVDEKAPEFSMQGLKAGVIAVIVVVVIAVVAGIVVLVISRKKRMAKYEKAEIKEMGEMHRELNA
Briefly: flow cytometry on DiFi tumor cells.
Protocol: Binding to the EpCAM-expressing human tumor cell lines DiFi, HPAF-II and A549 by bivalent EpCAM antibodies or bispecific antibodies carrying one EpCAM-binding arm was analyzed by flow cytometry. […] Next, cells were washed once (A-D) or twice (E) in FACS buffer, re-suspended in 100 μL FACS buffer and analyzed on a BD LSRFortessa FACS (BD Biosciences, USA), Celesta (BD Biosciences, USA) or iQue (Sartorius, Germany). Binding curves were analyzed using non-linear regression (sigmoidal dose-response with variable slope) using GraphPad Prism V7.02 software (GraphPad Software, San Diego, CA, USA).

T4 sequence (P08637 17-208 F176V limits assumed): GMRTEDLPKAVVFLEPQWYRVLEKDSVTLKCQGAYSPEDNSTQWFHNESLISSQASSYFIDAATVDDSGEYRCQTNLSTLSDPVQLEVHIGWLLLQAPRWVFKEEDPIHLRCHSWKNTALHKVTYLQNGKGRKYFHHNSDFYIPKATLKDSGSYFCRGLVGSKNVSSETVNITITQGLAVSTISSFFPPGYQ
T1 sequence (P08637 17-208): as the sequence (P08637 17-208 F176V limits assumed) above, with V160F counted along it
Protocol for FcγRIIIa-F158: (§2) At the end of each cycle, the surface was regenerated using 10 mM Glycine-HCl pH 1.5 (Cytiva, cat. no. BR100354).
Protocol for FcγRIIIa-V158: as §2
Protocol for FcγRIIa-H131: as §2
Protocol for FcγRIIa-R131: as §2
Protocol for FcγRIIb: as §2
Protocol for FcγRIa: as §2

B1: IgG1-CD137-009-HC7LC2-FEAR (antibody)
heavy: EVQLVESGGGLVQPGRSLRLSCTASGFSLNDYWMSWVRQAPGKGLEWVGYIDVGGSLYYAASVKGRFTISRDDSKSIAYLQMNSLKTEDTAVYYCARGGLTYGFDLWGQGTLVTVSSASTKGPSVFPLAPSSKSTSGGTAALGCLVKDYFPEPVTVSWNSGALTSGVHTFPAVLQSSGLYSLSSVVTVPSSSLGTQTYICNVNHKPSNTKVDKRVEPKSCDKTHTCPPCPAPEFEGGPSVFLFPPKPKDTLMISRTPEVTCVVVAVSHEDPEVKFNWYVDGVEVHNAKTKPREEQYNSTYRVVSVLTVLHQDWLNGKEYKCKVSNKALPAPIEKTISKAKGQPREPQVYTLPPSREEMTKNQVSLTCLVKGFYPSDIAVEWESNGQPENNYKTTPPVLDSDGSFFLYSRLTVDKSRWQQGNVFSCSVMHEALHNHYTQKSLSLSPG
light: DIVMTQSPSSLSASVGDRVTITCQASEDISSYLAWYQQKPGKAPKRLIYGASDLASGVPSRFSASGSGTDYTFTISSLQPEDIATYYCHYYATISGLGVAFGGGTKVEIKRTVAAPSVFIFPPSDEQLKSGTASVVCLLNNFYPREAKVQWKVDNALQSGNSQESVTEQDSKDSTYSLSSTLTLSKADYEKHKVYACEVTHQGLSSPVTKSFNRGEC
For the molecule B1, the binding result with FcγRIIIa-F158 is recorded as “no binding (tested: 10,000 nM (highest concentration tested))”; with FcγRIIa-R131, “no binding (tested: 10,000 nM (highest concentration tested))”; with FcγRIIb, “no binding (tested: 10,000 nM (highest concentration tested))”; in the assay with FcγRIIIa-V158, “no binding (tested: 10,000 nM (highest concentration tested))”; with FcγRIIa-H131, “no binding (tested: 10,000 nM (highest concentration tested))”; with FcγRIa, “no binding (tested: 3,000 nM (highest concentration tested))”. Besides, in assay [1], the koff is 0.0539 s⁻¹. In assay [1], this molecule showed an on-rate (kon) of 143000 M⁻¹ s⁻¹. In addition, binding in assay [2] was put at a Kd of 375 nM.

B2: bsIgG1-b12-FERL/CD137-009-HC7LC2-FEAR (bispecific antibody)
heavy 1: QVQLVQSGAEVKKPGASVKVSCQASGYRFSNFVIHWVRQAPGQRFEWMGWINPYNGNKEFSAKFQDRVTFTADTSANTAYMELRSLRSADTAVYYCARVGPYSWDDSPQDNYYMDVWGKGTTVIVSSASTKGPSVFPLAPSSKSTSGGTAALGCLVKDYFPEPVTVSWNSGALTSGVHTFPAVLQSSGLYSLSSVVTVPSSSLGTQTYICNVNHKPSNTKVDKRVEPKSCDKTHTCPPCPAPEFERGPSVFLFPPKPKDTLMISRTPEVTCVVVDVSHEDPEVKFNWYVDGVEVHNAKTKPREEQYNSTYRVVSVLTVLHQDWLNGKEYKCKVSNKALPAPIEKTISKAKGQPREPQVYTLPPSREEMTKNQVSLTCLVKGFYPSDIAVEWESNGQPENNYKTTPPVLDSDGSFLLYSKLTVDKSRWQQGNVFSCSVMHEALHNHYTQKSLSLSPG
light 1: EIVLTQSPGTLSLSPGERATFSCRSSHSIRSRRVAWYQHKPGQAPRLVIHGVSNRASGISDRFSGSGSGTDFTLTITRVEPEDFALYYCQVYGASSYTFGQGTKLERKRTVAAPSVFIFPPSDEQLKSGTASVVCLLNNFYPREAKVQWKVDNALQSGNSQESVTEQDSKDSTYSLSSTLTLSKADYEKHKVYACEVTHQGLSSPVTKSFNRGEC
heavy 2: EVQLVESGGGLVQPGRSLRLSCTASGFSLNDYWMSWVRQAPGKGLEWVGYIDVGGSLYYAASVKGRFTISRDDSKSIAYLQMNSLKTEDTAVYYCARGGLTYGFDLWGQGTLVTVSSASTKGPSVFPLAPSSKSTSGGTAALGCLVKDYFPEPVTVSWNSGALTSGVHTFPAVLQSSGLYSLSSVVTVPSSSLGTQTYICNVNHKPSNTKVDKRVEPKSCDKTHTCPPCPAPEFEGGPSVFLFPPKPKDTLMISRTPEVTCVVVAVSHEDPEVKFNWYVDGVEVHNAKTKPREEQYNSTYRVVSVLTVLHQDWLNGKEYKCKVSNKALPAPIEKTISKAKGQPREPQVYTLPPSREEMTKNQVSLTCLVKGFYPSDIAVEWESNGQPENNYKTTPPVLDSDGSFFLYSRLTVDKSRWQQGNVFSCSVMHEALHNHYTQKSLSLSPG
light 2: DIVMTQSPSSLSASVGDRVTITCQASEDISSYLAWYQQKPGKAPKRLIYGASDLASGVPSRFSASGSGTDYTFTISSLQPEDIATYYCHYYATISGLGVAFGGGTKVEIKRTVAAPSVFIFPPSDEQLKSGTASVVCLLNNFYPREAKVQWKVDNALQSGNSQESVTEQDSKDSTYSLSSTLTLSKADYEKHKVYACEVTHQGLSSPVTKSFNRGEC
notes: also called bsIgG1-b12-FERL/CD137-HC7LC2-FEAR; bsIgG1-b12-FERLxCD137-009-HC7LC2-FEAR
Consider B2, for which, in assay [3], the binding result is on record as “no binding (tested: up to 30 µg/mL)”.

B3: IgG1-EpCAM-A37-FERL (antibody)
heavy: not shown
light: EIELTQSPGTLSLSPGERATLSCRASQTISNNYLAWYQQKRGQAPRLLIYAASSRATGIPDRFSGTGSGTDFTLTISRLEPEDFAVYYCAQGELYPRQFGGGTKLEIKRTVAAPSVFIFPPSDEQLKSGTASVVCLLNNFYPREAKVQWKVDNALQSGNSQESVTEQDSKDSTYSLSSTLTLSKADYEKHKVYACEVTHQGLSSPVTKSFNRGEC
Regarding B3, the binding result is listed as “no binding (tested: 10,000 nM (highest concentration tested))” with FcγRIIIa-F158; “no binding (tested: 10,000 nM (highest concentration tested))” with FcγRIIa-R131; “no binding (tested: 10,000 nM (highest concentration tested))” with FcγRIIb; “no binding (tested: 10,000 nM (highest concentration tested))” with FcγRIIIa-V158; “no binding (tested: 10,000 nM (highest concentration tested))” in the assay with FcγRIIa-H131; “no binding (tested: 3,000 nM (highest concentration tested))” with FcγRIa. This molecule showed a koff in [1] of 0.0413 s⁻¹. Further, the kon in assay [1] came to 180000 M⁻¹ s⁻¹. The same molecule returned a Kd in assay [2] of 230 nM.

B4: bsIgG1-b12-FERL/b12-FEAR (bispecific antibody)
heavy 1: QVQLVQSGAEVKKPGASVKVSCQASGYRFSNFVIHWVRQAPGQRFEWMGWINPYNGNKEFSAKFQDRVTFTADTSANTAYMELRSLRSADTAVYYCARVGPYSWDDSPQDNYYMDVWGKGTTVIVSSASTKGPSVFPLAPSSKSTSGGTAALGCLVKDYFPEPVTVSWNSGALTSGVHTFPAVLQSSGLYSLSSVVTVPSSSLGTQTYICNVNHKPSNTKVDKRVEPKSCDKTHTCPPCPAPEFERGPSVFLFPPKPKDTLMISRTPEVTCVVVDVSHEDPEVKFNWYVDGVEVHNAKTKPREEQYNSTYRVVSVLTVLHQDWLNGKEYKCKVSNKALPAPIEKTISKAKGQPREPQVYTLPPSREEMTKNQVSLTCLVKGFYPSDIAVEWESNGQPENNYKTTPPVLDSDGSFLLYSKLTVDKSRWQQGNVFSCSVMHEALHNHYTQKSLSLSPG
heavy 2: QVQLVQSGAEVKKPGASVKVSCQASGYRFSNFVIHWVRQAPGQRFEWMGWINPYNGNKEFSAKFQDRVTFTADTSANTAYMELRSLRSADTAVYYCARVGPYSWDDSPQDNYYMDVWGKGTTVIVSSASTKGPSVFPLAPSSKSTSGGTAALGCLVKDYFPEPVTVSWNSGALTSGVHTFPAVLQSSGLYSLSSVVTVPSSSLGTQTYICNVNHKPSNTKVDKRVEPKSCDKTHTCPPCPAPEFEGGPSVFLFPPKPKDTLMISRTPEVTCVVVAVSHEDPEVKFNWYVDGVEVHNAKTKPREEQYNSTYRVVSVLTVLHQDWLNGKEYKCKVSNKALPAPIEKTISKAKGQPREPQVYTLPPSREEMTKNQVSLTCLVKGFYPSDIAVEWESNGQPENNYKTTPPVLDSDGSFFLYSRLTVDKSRWQQGNVFSCSVMHEALHNHYTQKSLSLSPG
light: EIVLTQSPGTLSLSPGERATFSCRSSHSIRSRRVAWYQHKPGQAPRLVIHGVSNRASGISDRFSGSGSGTDFTLTITRVEPEDFALYYCQVYGASSYTFGQGTKLERKRTVAAPSVFIFPPSDEQLKSGTASVVCLLNNFYPREAKVQWKVDNALQSGNSQESVTEQDSKDSTYSLSSTLTLSKADYEKHKVYACEVTHQGLSSPVTKSFNRGEC
notes: also called b12-FERLxb12-FEAR; bsIgG1-ctrl-b12-FERL/b12-FEAR
Consider B4, for which the binding result in assay [3] is “no binding (tested: up to 30 µg/mL)”.
